# Experimental data published in the DeepSol protein solubility set.
# Test: soluble on expression in E. coli; label from the status in PepcDB or PDB records
row,Sequence,soluble on expression in E. coli
1,MLKGKKILLCVTGGIAVFKAAALTSKLTQAGAIVKVMMSESAVKFVTPLTFQALSRHDVYTDTFDEKDSAVIAHIDLADWADVVLVAPATANCIGKLANGIADDMITTTLLATTAPVWIAPAMNVHMYENKIVQKNMMTLKTLGYTFIEPGEGFLACGYVAKGRLEEPEAIIARLEEAFSEQKPLQGKRILITAGPTREKIDPVRFMTNFSSGKMGYAIAEVAVNLGAEVILVSGPTALNPPLHVTTVQVESAQDMLEAVIQHYQNVDVVIKTAAVADYRPKYVHDNKMKKKNGDAVIELERTVDILKTLGEMKDKQLLIGFAAETTNVEEYATKKLREKNANMIVANDVKAQGAGFGTDTNIVTMYRKDGEVIELPLLTKKEVAREILKQIEMMLEDDRL,soluble
2,MLKGKVALVTGASRGIGRAIAKRLANDGALVAIHYGNRKEEAEETVYEIQSNGGSAFSIGANLESLHGVEALYSSLDNELQNRTGSTKFDILINNAGIGPGAFIEETTEQFFDRMVSVNAKAPFFIIQQALSRLRDNSRIINISSAATRISLPDFIAYSMTKGAINTMTFTLAKQLGARGITVNAILPGFVKTDMNAELLSDPMMKQYATTISAFNRLGEVEDIADTAAFLASPDSRWVTGQLIDVSGGSCL,not soluble
3,MLKKKVNNDAGKTFILISSSCSSCQKAIEYFKENNLSYTIENFYKKPISDKRFRDILSLSEDGTESLFSKRADQIRSNTNQSVEDLTIPELIKLIRERPSILRRPIIIQYNSSGIPKRMRIGYNAAEIKVFERSLMEPKVRTVKK,soluble
4,MLKKTLAALALGSALFTAGQAMAADYKIDKEGQHAFIEFRIKHLGYSWLYGRFNDFDGSFTFDEKNPSADKVKVTINTNSVDTNHAERDKHLRSGDFLNVSKNPTATFESTEVKANGDSADITGNLTLNGVTKPVTIKAKLIGQGDDPWGGYRAGFEGSATLKLKDFGIKMDLGPASQEVELLLSVEGIRQ,not soluble
5,MLKVDKVFPWETFRGKLESPYSKKPKWDVILLLKVLLIKFVYEISWLEGEIRDSKMFMKFLGGKVHQKSILLLQETVVDEGERMWTTLMTQQGLRQGDLEHHHHHH,not soluble
6,MLKVIRRFFTAKQRQTPAKQDVELESGRGWAGLEEWRLVAKYSVGPVEYYLYRDNSEGVRLTFKEPPEPGEAVVKEIIAGNIEPVGEGERYHAEKRMSGYGRLYPLIIDGHIEEIAFEGPGRGVSVIHSLVPGRWIDVDLKLGEDEANSLALQLARKAGRSLSLAQPLAEGLTGEGHRVAVTFSREVSRFGSSFVIRKYPEKPVTMADLVASRVLTPLQAAYLWLLVESQQFIVVSGPMGSGKTTLLQALAGLIPPFYRVITIEDTPEIRLYNRHWDSLVTRPPLPGESMVEVDLEALLRFALRRRAEYIIVGEVRGREARLLAQAAASGHGSMTTMHGDTPEGVILRLQLEPISLPPVFLSLIGAIVMLRRLPGYGGAVRRRVVSITEIEGGEAVDVFAWDPKGDLVSPDNPRDIVESSFRLREAVSRIPDLITDLEAELSERAGLLEKLAGSPPEVFHKALARFYSERYGRV,soluble
7,MLLCDTNIWLALALSGHVHHRASRAWLDTINAPGVIHFCRATQQSLLRLLTNRTVLGAYGSPPLTNREAWAAYAAFLDDDRIVLAGAEPDGLEAQWRAFAVRQSPAPKVWMDAYLAAFALTGGFELVTTDTAFTQYGGIELRLLAK,not soluble
8,MLLMEKILYQTDEFKLKPSGWYKTIPPKKDGGTEFEIMLSGPIAFTDRFIDPATRKEKVFLSDLNNIELVEKASILTALQLPSLIEYGFTINEKHIRDLGFVLQQMRSTTPLSTIYSGVGMLHTLLGPLISLDQPYFSNEITNSTSIICDNKYDLIPKGNLSEWLQMYKEEVHGNLSLELDVLFGVSSLVTAFLKYHNNVEFSGTIFSFTGQSSTGKSTAAMLAASVAGNPTKGTENLFRSWNATRNALEGYLSGNYGVPIVLDELSAATFHDTTGLLYSFAEGQGRQRANINGDVKTPKNLEHHHHHH,not soluble
9,MLNDLYEEIKLRKTQPREGSYTNYLFDKGLDKILKKVGEEATEVVIAAKNDNQELIAEVSDLAYHLLVLLAEKNIPLVAIQTELQKREGKLSTTRDRKEINDL,not soluble
